The target in assay [1] is T7-FoxM1B WT protein (CMV T7-FoxM1B; CMV WT FoxM1B 1-748) (human) (UniProt Q08050). Put plainly: cell-based or functional assay.
In another assay the target is Cdk1 protein (human) (UniProt P06493). As to the kind of experiment: cell-based or functional assay.
Cdk1 protein (human), sequence (P06493 whole entry): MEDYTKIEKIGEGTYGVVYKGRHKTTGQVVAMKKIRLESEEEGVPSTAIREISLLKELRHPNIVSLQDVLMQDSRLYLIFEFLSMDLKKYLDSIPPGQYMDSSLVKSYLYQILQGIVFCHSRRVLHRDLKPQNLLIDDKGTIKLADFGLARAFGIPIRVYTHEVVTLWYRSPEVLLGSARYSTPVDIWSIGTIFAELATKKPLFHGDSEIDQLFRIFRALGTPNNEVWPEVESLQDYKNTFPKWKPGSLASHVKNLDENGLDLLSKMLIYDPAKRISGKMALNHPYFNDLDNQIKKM

Regarding “CBP protein (CREB Binding Protein, CMV-CBP) (enzyme)”, the FoxM1B transcriptional activity (6×FoxM1B TATA-luciferase reporter, U2OS cells) (% stimulation) in assay [1] was determined as 50.

In the assay with Cdk1 protein (human), “T7-FoxM1B L641A mutant protein (from UniProt Q08050 1-763)” returned a FoxM1B transcriptional activity (6×FoxM1B TATA-luciferase reporter, U2OS cells) of 80 % reduction.

The record behind these values is patent US20130196933A1.
